Assay results: patent publication US20060182721A1

Target: Notch on human peripheral blood CD14-positive cells (human)
Experiment: cell-based or functional assay

Q: How did the level of HES-1 gene expression (real-time RT-PCR, ratio to GAPDH) in CD14-positive cells after 24 hours of culture turn out when “Delta-1 construct composed of the human Delta-1 extracellular domain and 6 myc proteins (from UniProt O00548 18-545) (ligand)” was run?
A: The level of HES-1 gene expression (real-time RT-PCR, ratio to GAPDH) in CD14-positive cells after 24 hours of culture was 8 times.
